B1: Spindle assembly checkpoint serine/threonine-protein kinase BUB1 (Saccharomyces cerevisiae), P41695 (parent)
chain: MNLDLGSTVRGYESDKDTFPQSKGVSSSQKEQHSQLNQTKIAYEQRLLNDLEDMDDPLDLFLDYMIWISTSYIEVDSESGQEVLRSTMERCLIYIQDMETYRNDPRFLKIWIWYINLFLSNNFHESENTFKYMFNKGIGTKLSLFYEEFSKLLENAQFFLEAKVLLELGAENNCRPYNRLLRSLSNYEDRLREMNIVENQNSVPDSRERLKGRLIYRTAPFFIRKFLTSSLMTDDKENRANLNSNVGVGKSAPNVYQDSIVVADFKSETERLNLNSSKQPSNQRLKNGNKKTSIYADQKQSNNPVYKLINTPGRKPERIVFNFNLIYPENDEEFNTEEILAMIKGLYKVQRRGKKHTEDYTSDKNRKKRKLDVLVERRQDLPSSQPPVVPKSTRIEVFKDDDNPSQSTHHKNTQVQVQTTTSILPLKPVVDGNLAHETPVKPSLTSNASRSPTVTAFSKDAINEVFSMFNQHYSTPGALLDGDDTTTSKFNVFENFTQEFTAKNIEDLTEVKDPKQETVSQQTTSTNETNDRYERLSNSSTRPEKADYMTPIKETTETDVVPIIQTPKEQIRTEDKKSGDNTETQTQLTSTTIQSSPFLTQPEPQAEKLLQTAEHSEKSKEHYPTIIPPFTKIKNQPPVIIENPLSNNLRAKFLSEISPPLFQYNTFYNYNQELKMSSLLKKIHRVSRNENKNPIVDFKKTGDLYCIRGELGEGGYATVYLAESSQGHLRALKVEKPASVWEYYIMSQVEFRLRKSTILKSIINASALHLFLDESYLVLNYASQGTVLDLINLQREKAIDGNGIMDEYLCMFITVELMKVLEKIHEVGIIHGDLKPDNCMIRLEKPGEPLGAHYMRNGEDGWENKGIYLIDFGRSFDMTLLPPGTKFKSNWKADQQDCWEMRAGKPWSYEADYYGLAGVIHSMLFGKFIETIQLQNGRCKLKNPFKRYWKKEIWGVIFDLLLNSGQASNQALPMTEKIVEIRNLIESHLEQHAENHLRNVILSIEEELSHFQYKGKPSRRF
partner: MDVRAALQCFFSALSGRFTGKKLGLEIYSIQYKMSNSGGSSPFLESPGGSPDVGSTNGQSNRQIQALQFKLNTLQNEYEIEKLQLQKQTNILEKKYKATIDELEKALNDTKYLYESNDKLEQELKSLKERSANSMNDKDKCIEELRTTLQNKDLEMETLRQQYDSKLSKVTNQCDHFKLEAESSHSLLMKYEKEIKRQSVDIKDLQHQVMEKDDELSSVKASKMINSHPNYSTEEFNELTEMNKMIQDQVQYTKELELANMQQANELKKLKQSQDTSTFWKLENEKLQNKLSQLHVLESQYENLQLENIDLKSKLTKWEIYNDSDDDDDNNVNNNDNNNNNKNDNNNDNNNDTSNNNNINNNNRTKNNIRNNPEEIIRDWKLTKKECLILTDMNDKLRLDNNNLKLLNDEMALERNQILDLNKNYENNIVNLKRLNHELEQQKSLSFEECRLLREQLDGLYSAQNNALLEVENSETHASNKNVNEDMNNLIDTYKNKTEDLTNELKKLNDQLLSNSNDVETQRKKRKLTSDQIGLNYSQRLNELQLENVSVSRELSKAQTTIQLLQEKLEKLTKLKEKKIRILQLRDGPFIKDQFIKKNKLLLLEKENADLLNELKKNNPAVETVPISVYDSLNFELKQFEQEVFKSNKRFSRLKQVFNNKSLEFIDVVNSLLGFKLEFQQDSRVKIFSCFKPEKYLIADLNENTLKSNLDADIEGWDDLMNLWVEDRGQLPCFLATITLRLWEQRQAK

Variants of: B1
Conditions: with mad1_yeast MAD1, P40957

| Variant | effect of a mutation on the interaction |
| --- | --- |
| K733R | decreasing interaction |

From IntAct's records for PubMed 10837255
